Reference: PMC8195987, “Structural basis for plazomicin antibiotic action and resistance” (Communications Biology, 2021)

Biological target: the molecule itself
Assay: crystal structure; AAC(2′)-Ia at 10 mg/mL with 10 mM acetyl-CoA and 10 mM plazomicin, sitting-drop vapor diffusion at 4 °C, reservoir 0.2 M LiCl and 40% (v/v) MPD; product-bound state (acetylated plazomicin and CoA)

B1: AAC(2′)-Ia from Providencia stuartii (enzyme)
chain: MGIEYRSLHTSQLTLSEKEALYDLLIEGFEGDFSHDDFAHTLGGMHVMAFDQQKLVGHVAIIQRHMALDNTPISVGYVEAMVVEQSYRRQGIGRQLMLQTNKIIASCYQLGLLSASDDGQKLYHSVGWQIWKGKLFELKQGSYIRSIEEEGGVMGWKADGEVDFTASLYCDFRGGDQW
notes: AAC(2′)-Ia, aminoglycoside 2′-N-acetyltransferase of Providencia stuartii; synthesized aac(2′)-Ia gene cloned in pET-15b between NdeI and BamHI, N-terminal HIS-tag followed by a thrombin cleavage site; the tag was removed with thrombin; Homodimer in the crystal, each unit with acetylated plazomicin and CoA in the active site; also called aminoglycoside 2′-N-acetyltransferase; AAC(2′)-Ia …
- binding result: binds
